Consider three molecules from paper PMC10085707.

Data set [1] addresses SpRadA K101A point mutant (Streptococcus pneumoniae) (UniProt Q8DRP0). Briefly: negative-stain electron microscopy.
Data set [2] has as its target SpRadA helicase (Streptococcus pneumoniae RadA), full length (Streptococcus pneumoniae) (UniProt Q8DRP0). Briefly: negative-stain electron microscopy.
For data set [3], the target named is SpRecA (Streptococcus pneumoniae, UniProt P0A452 1-388). The experiment in a line: fluorescence anisotropy. On the technique in general: Polarisation of emitted light reports the rotation of a fluorescent probe.

As for “SpRadA K101A point mutant (from UniProt Q8DRP0 1-420) (enzyme)”, the stoichiometry N (commonly a count of units in the complex or per binding partner) in data set [1] came to 6.

On to “SpRadA helicase (Streptococcus pneumoniae RadA), full length (from UniProt Q8DRP0 1-420) (enzyme)”, for which the stoichiometry N in data set [2] was found to be 6.

B1: T65 (polydT 65-mer) (ssDNA)
DNA: TTTTTTTTTTTTTTTTTTTTTTTTTTTTTTTTTTTTTTTTTTTTTTTTTTTTTTTTTTTTTTTTT
For the molecule B1, the binding result in data set [3] is on record as “binds”.
